Results as given in patent US20260265800A1, “NEW FUCOSYLTRANSFERASES FOR IN VIVO SYNTHESIS OF LNFP-III” (DSM IP Assets B.V., priority 2022, published 2026).
Substitutions are numbered along the chain they refer to. Several values for one entry are separate records, joined by “and”; a condition that tells them apart may be missing. Equal values may be shown once.

B1: Hpull1: α-1,3-fucosyltransferase from Helicobacter pullorum, GenBank WP_065831246.1, SEQ ID NO: 3 (protein, listed as Helicobacter pullorum)
chain: MRKDLVIIRVDGGIASQISFVALGLEFESRGYKVKYDLSWFDEFGNGICNEQNGYDRSYNIVFDIPKAFPDIKCEIASRDEIEIYRKKYFVDNEEVIELKPPLYVGGYLGRHFNFKYRDFFAKHFNPKEIQESDSECKILLDNILSNHSCGVHIRRGDLSKEHVVYGKPLSVEYFLKNIQLVLQIEPKSKFYFFGDDLEWVKKKVIPSLNSIEYEICNVNSVEKGYLDLYLLSRCKIIIASQGSMGKFAKMLASDTETLLIAPNKNAPMENMIMVNWVDSYESSGEKQIQKPLSWRNKIRLKIYKKFRNKLLQKGIL
B2: PmglB_70UTR_SD8: promoter sequence, SEQ ID NO: 16 (nucleic acid)
DNA: TGCGTCGCCATTCTGTCGCAACACGCCAGAATGCGGCGGCGATCACTAACTCAACAAATCAGGCGATGTAACCGCTTTCAATCTGTGAGTGATTTCACAGTATCTTAACAATGTGATAGCTATGATTGCACCGTGCCTACAAGCATCGTGGAGGTCCGTGACTTTCACGCATACAACAAACATTAACCAAGAGAAAAACAGCT
B3: PmglB_70UTR_SD10: promoter sequence, SEQ ID NO: 17 (nucleic acid)
DNA: B2 DNA with G191C, A192T, A195G
B4: CafD: prior art α-1,3-fucosyltransferase from Helicobacter hepaticus ATCC 51449, GenBank AAP76669.1, SEQ ID NO: 41 (protein, listed as Helicobacter hepaticus)
chain: MKDDLVILHPDGGIASQIAFVALGLAFEQKGAKVKYDLSWFAEGAKGFWNPSNGYDKVYDITWDISKAFPALHIEIANEEEIERYKSKYLIDNDRVIDYAPPLYCYGYKGRIFHYLYAPFFAQSFAPKEAQDSHTPFAALLQEIESSPSPCGVHIRRGDLSQPHIVYGNPTSNEYFAKSIELMCLLHPQSSFYLFSDDLAFVKEQIVPLLKGKTYRICDVNNPSQGYLDLYLLSRCRNIIGSQGSMGEFAKVLSPHNPLLITPRYRNIFKEVENVMCVNWGESVQHPPLVCSAPPPLVSQLKRNAPLNSRLYKEKDNASA
B5: PmglB_54UTR: promoter sequence, SEQ ID NO: 18 (nucleic acid)
DNA: TGCGTCGCCATTCTGTCGCAACACGCCAGAATGCGGCGGCGATCACTAACTCAACAAATCAGGCGATGTAACCGCTTTCAATCTGTGAGTGATTTCACAGTATCTTAACAATGTGATAGCTATGATTGCACCGTGCCTACAAGCATCGTGGAGGTCCGTGACTTTCACGCATACAACAAACATTAACAAAAACCGGAGATACC
B6: FutB: prior art α-1,3-fucosyltransferase from Helicobacter pylori, GenBank WP_000487430.1, SEQ ID NO: 6 (protein, listed as Helicobacter pylori)
chain: MFQPLLDAFIESASIEKMVSKSPPPPLKIAVANWWGDEEIKEFKKSVLYFILSQRYAITLHQNPNESSDLVFSNPLGAARKILSYQNTKRVFYTGENESPNFNLFDYAIGFDELDFNDRYLRMPLYYAHLHYEAELVNDTTAPYKLKDNSLYALKKPSHHFKENHPNLCAVVNDESDLLKRGFASFVASNANAPMRNAFYDALNSIEPVTGGGSVRNTLGYKVGNKSEFLSQYKFNLCFENSQGYGYVTEKILDAYFSHTIPIYWGSPSVAKDFNPKSFVNVHDFNNFDEAIDYIKYLHTHPNAYLDMLYENPLNTLDGKAYFYQDLSFKKILDFFKTILENDTIYHNNPFIFYRDLHEPLISIDDLRVNYDDLRVNYDDLRVNYDDLRVNYDDLRVNYDDLRVNYDDLRVNYDDLRVNYDDLRVNYDDLRVNYDRLLQNASPLLELSQNTTFKIYRKAYQKSLPLLRTIRRWVKK
B7: Plac_70UTR: promoter sequence, SEQ ID NO: 19 (nucleic acid)
DNA: TGTGAGTTAGCTCACTCATTAGGCACCCCAGGCTTTACACTTTATGCTTCCGGCTCGTATGTTGTGTGGAATGCCTACAAGCATCGTGGAGGTCCGTGACTTTCACGCATACAACAAACATTAACCAAGGAGGAAACAGCT
B8: Camp1: α-1,3-fucosyltransferase from Campylobacter sp., GenBank MBP3676691.1, SEQ ID NO: 1 (protein, listed as Campylobacter sp.)
chain: MRKDLVIIRVDGGIASQIAFVALGLEFESRGYKVKYDLSWFDEFGNGFYNEQNGYDRSYNITFDIPKAFPDIKCEIASRDEIEIYRKKYFVDNEEVIELKPPLYVGGYLGRHFDFKYRDFFAKHFNPKEIQESDSECKILLDNILSNHSCGVHIRMGDLSKEHVVYGKPLSVEYFLKNIQLVLQIEPKSKFYFFSDDLEWVKKKVIPSLHSIEYEICNVNSVEKGYLDLYLLSRCKIIIASQGSMGKYAKMLALDSKTLLITPNKNAPMENMMMVNWADSYESFEEKQIQKPLSWRNKIRLKIYKKLRNKLLQKGIL
B9: FucT109: prior art α-1,3-fucosyltransferase from Bacteroides fragilis ATCC 25285, GenBank CAH09151.1, SEQ ID NO: 42 (protein, listed as Bacteroides fragilis)
chain: MCDCLSIILLVKMKKIYLKFVDFWDGFDTISNFIVDALSIQYEVVLSNEPDYLFYSCFGTSHLEYDCIKIMFIGENIVPDFNVCDYAIGFNYIDFGDRYLRLPLYAIYDGFSNLQNKKIDVNKALDRKFCSIVVSNNKWADPIRETFFKLLSSYKKVDSGGRAWNNIGGPVDNKLDFISQYKFNIAFENSRVLGYTTEKIMEPMQVNSIPVYWGNPLVGKDFNVDSFVNAHDFDSLERLVEYIIELDSSKDKYLEMLEKPWLLDKTYLDWKQLLLNFINNIMMKSYKDAKYLVNYGHAGKYRNEQRFWGRCERKFKLQRIIEYYSQLFDRK
B10: Med1: α-1,3-fucosyltransferase from Mediterranea sp. An20, GenBank WP_087337236.1, SEQ ID NO: 4 (protein, listed as Mediterranea sp.)
chain: MRKILILFYNKLWGVSWENEACASIPDGFELTDDRSRMAEADAVVFHLPDLARCMDGEEIEKRDGQLWVTWNLECDDNYPWVEAPEIRDLFDLRIGYRQQDDVWYPYFSFIRAEAFTRLPPRRPPLDKACLFVSSPFNRSHRFEFLRELMRHTEVDSFGRMLHNKDLPADEGRKTLMEKIADYKFVIGVENALARDYVTEKFFQPLLAGTVPVYRGAPNVEEFAPGRHCFVDARAFRSPADLAGFMNRCYEHPALYDELTAWRTQPLQPGFVQKLEQVKEHPFVRLCRVVEEKIRRIEYKIT

Legend:
LNnT = test: Deep well assay: HMO profile of LNnT-producing strains expressing α-1,3-fucosyltransferases (HPLC); type: cell-based, Escherichia coli; conditions: for LNFP-III, % of total HMO molar (mM) content produced by each strain: lactose as substrate, FT copy nr as in table 7 (enzyme names in text: single copy)
Method: Deep Well Assays in the current examples were performed as originally described to Lv et al (Bioprocess Biosyst Eng 20 (2016) 39:1737-1747) and optimized for the purposes of the current invention. More specifically, the strains disclosed in the present example were screened in 96 deep well plates using a 4-day protocol. During the first 24 hours, precultures were grown to high densities (OD600 up to 5) and subsequently transferred to a medium that allowed induction of gene expression and product formation.
More specifically, during day 1, fresh precultures were prepared using a basal minimal medium (BMM) (pH 7.0) supplemented with magnesium sulphate (0.12 g/L), thiamine (0.004 g/L) and glucose (5.5 g/L). Basal Minimal medium had the following composition: NaOH (1 g/L), KOH (2.5 g/L), KHzPO4 (7 g/L), NH&HzPO4 (7 g/L), Citric acid (0.5 g/l), trace mineral solution (5 mL/L). The trace mineral stock solution contained; ZnSO~*7H~O 0.82 g/L, Citric acid 20 g/L, Mn$04*H&O 0.98 g/L, FeSO4*7H&O 3.925 g/L, CuSO4*5H~O 0.2 g/L. The pH of the Basal Minimal Medium was adjusted to 7.0 with 5 N NaOH and autoclaved. The precultures were incubated for 24 hours at 34° C. and 1000 rpm shaking and then further transferred to 0.75 ml of a new BMM (pH 7,5) to start the main culture. The new BMM was supplemented with magnesium sulphate (0.12 g/L), thiamine (0.02 g/L), a bolus of glucose solution (0.1-0.15 g/L) and a bolus of lactose solution (5-20 g/L) Moreover, a 20% stock solution of sucrose (40-45 g/L) or maltodextrin (19-20 g/L) was provided as carbon source, accompanied by the addition of a specific hydrolytic enzyme, sucrose hydrolase or glycoamylase, respectively, so that glucose was released at a rate suitable for carbon-limited growth and similar to that of a typical fed-batch fermentation process. The main cultures were incubated for 72 hours at 28° C. and 1000 rpm shaking. For the analysis of total broth, the 96 well plates were boiled at 100° C., subsequently centrifuged, and finally the supernatants were analysed by HPLC.
Genetically modified cells expressing individual α-1,3-fucosyltransferase enzymes were screened for their ability to produce the fucosylated HMO LNFP-III.
Genetically modified strains expressing the six individual α-1,3-fucosyltransferases (table 5) were generated as described in the “Method” section. The cells were screened in the deep well assay setup as described in the “Method” section.
The molar content of individual HMOs produced by the strains was measured by HPLC.
The results of the LNFP-III producing cells are shown in table 7 as the fraction of the total molar HMO content (in percentage, %) produced by each strain.

β-galactosidase activity = conditions: LacZ assay, cited from earlier work; for % Activity relative to PglpF: PglpF as positive reference, a range indicates results from multiple assays
[1] = FT copy nr as in table 7, listed as FutT109

Molecule | LNDFH-III, % of total HMO molar (mM) content produced by each strain (LNnT; FT copy nr as in table 7) | % Activity relative to PglpF (β-galactosidase activity) | Strength (β-galactosidase activity) | LNnT, % of total HMO molar (mM) content produced by each strain (LNnT; FT copy nr as in table 7) | pLNnH, % of total HMO molar (mM) content produced by each strain (LNnT; FT copy nr as in table 7) | LNFP-III, % of total HMO molar (mM) content produced by each strain (LNnT) | further results
B1 | do not produce any | – | – | – | – | – | –
B2 | – | 291% | high (A regulatory element with an activity above 10,000 MU is considered strong) | – | – | – | –
B3 | – | 233-281% | high (A regulatory element with an activity above 10,000 MU is considered strong) | – | – | – | –
B4 | 0.0 ± 0.0% | – | – | 81.9 ± 1.3% | 18.1 ± 1.3% | 0.0 ± 0.0% | 3-FL, % of total HMO molar (mM) content produced by each strain (LNnT; FT copy nr as in table 7): 0.0 ± 0.0%; LNFP-VI, % of total HMO molar (mM) content produced by each strain (LNnT; FT copy nr as in table 7): 0.0 ± 0.0%; production of fucosylated HMOs (fucosylation of LNnT or lactose) (LNnT; single copy): does not produce any fucosylated HMOs
B5 | – | 197% | high (A regulatory element with an activity above 10,000 MU is considered strong) | – | – | – | –
B6 | 0.0 ± 0.0% | – | – | 78.9 ± 0.4% | 13.2 ± 0.2% | 6% and 6.2 ± 0.5% | –
B7 | – | 182-220% | high (A regulatory element with an activity above 10,000 MU is considered strong) | – | – | – | –
B8 | do not produce any | – | – | – | – | – | –
B9 | – | – | – | 28.7 ± 1.6% | 0.8 ± 0.7% | 26% | 3-FL, % of total HMO molar (mM) content produced by each strain (LNnT; FT copy nr as in table 7): 2.0 ± 1.8%; LNFP-VI, % of total HMO molar (mM) content produced by each strain (LNnT; FT copy nr as in table 7): 18%; LNDFH-III, % of total HMO molar (mM) content produced by each strain (LNnT; [1]): 24% and 23.9 ± 1.8%; LNFP-VI, % of total HMO molar (mM) content produced by each strain (LNnT; [1]): 18.0 ± 2.6%; LNFP-III, % of total HMO molar (mM) content produced by each strain (LNnT; listed as FutT109): 26.6 ± 3.5%
B10 | do not produce any | – | – | – | – | – | –
